Experimental data published in patent US20140127200A1.

Molecular target: HER2 expressed on the surface of breast carcinoma cells (BT-474; SK-BR-3) (human) (UniProt P04626)
Assay: cell-based or functional assay

**Q.** “HER-con4(H) (…® with the 2xcon4 MRD fused to the heavy chain) (bispecific antibody)” was tested. Which ADCC on SK-BR-3 cells with human PBMCs (specific release), IC50 did it give?
**A.** 0.067 nM
